Assay results as given in the supplement of paper PMC11316812.
± gives the standard deviation of the averaged measurements.

Experiments:
[1] = system: MCF7; test: percentage of EdU-negative (G0-arrested) nuclei per well, 72 h; higher = more G0 arrest; settings: reference: sequence is the full UniProt precursor, the tested protein was the secreted form or ectodomain
[2] = system: hTERT-HMEC; test: as above; settings: reference: sequence is the full UniProt precursor, the tested protein was the secreted form or ectodomain
[3] = protein concentration 0.0225 µM
[4] = protein concentration 0.0217725 µM
[5] = protein concentration 0.217725 µM
[6] = protein concentration 0.00685714 µM
[7] = protein concentration 0.0685714 µM
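Also: secreted proteins added to cultured cells, EdU pulse at the end, nuclei found by Hoechst imaging, EdU status from nuclear versus surrounding ring intensity ratio, PBS as neutral control.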

MKFSPAHYLLPLLPALVLSTRQDYEELEKQLKEVFKERSTILRQLTKTSRELDGIKVNLQSLKNDEQSAKTDVQKLLELGQKQREEMKSLQEALQNQLKETSEKAEKHQATINFLKTEVERKSKMIRDLQNENKSLKNKLLSGNKLCGIHAEESKKIQAQLKELRYGKKDLLFKAQQLTDLEQKLAVAKNELEKAALDRESQMKAMKETVQLCLTSVFRDQPPPPLSLITSNPTRMLLPPRNIASKLPDAAAKSKPQQSASGNNESSQVESTKEGNPSTTACDSQDEGRPCSMKHKESPPSNATAETEPIPQKLQMPPCSECEVKKAPEKPLTSFEGMAAREEKIL [Q86TE4]
percentage of EdU-negative [1, 3]: 26 ± 0.38% | percentage of EdU-negative ([1]; protein concentration 0.225 µM): 30.1 ± 1.1% | percentage of EdU-negative [2, 3]: 5.34 ± 0.34% | percentage of EdU-negative ([2]; protein concentration 0.225 µM): 8.84 ± 1.3%

MENPSPAAALGKALCALLLATLGAAGQPLGGESICSARALAKYSITFTGKWSQTAFPKQYPLFRPPAQWSSLLGAAHSSDYSMWRKNQYVSNGLRDFAERGEAWALMKEIEAAGEALQSVHAVFSAPAVPSGTGQTSAELEVQRRHSLVSFVVRIVPSPDWFVGVDSLDLCDGDRWREQAALDLYPYDAGTDSGFTFSSPNFATIPQDTVTEITSSSPSHPANSFYYPRLKALPPIARVTLVRLRQSPRAFIPPAPVLPSRDNEIVDSASVPETPLDCEVSLWSSWGLCGGHCGRLGTKSRTRYVRVQPANNGSPCPELEEEAECVPDNCV [Q9BUD6]
percentage of EdU-negative [1, 4]: 23.8 ± 0.42% | percentage of EdU-negative [1, 5]: 26.9 ± 1.5% | percentage of EdU-negative [2, 4]: 4.15 ± 0.79% | percentage of EdU-negative [2, 5]: 7.892 ± 0.078%

MEIVWEVLFLLQANFIVCISAQQNSPKIHEGWWAYKEVVQGSFVPVPSFWGLVNSAWNLCSVGKRQSPVNIETSHMIFDPFLTPLRINTGGRKVSGTMYNTGRHVSLRLDKEHLVNISGGPMTYSHRLEEIRLHFGSEDSQGSEHLLNGQAFSGEVQLIHYNHELYTNVTEAAKSPNGLVVVSIFIKVSDSSNPFLNRMLNRDTITRITYKNDAYLLQGLNIEELYPETSSFITYDGSMTIPPCYETASWIIMNKPVYITRMQMHSLRLLSQNQPSQIFLSMSDNFRPVQPLNNRCIRTNINFSLQGKDCPNNRAQKLQYRVNEWLLK [Q9NS85]
percentage of EdU-negative [1, 3]: 25.5 ± 2.5% | percentage of EdU-negative ([1]; protein concentration 0.225 µM): 27.9 ± 0.69% | percentage of EdU-negative [2, 3]: 5.049 ± 0.027% | percentage of EdU-negative ([2]; protein concentration 0.225 µM): 8.51 ± 1.1%

MAESAGASSFFPLVVLLLAGSGGSGPRGVQALLCACTSCLQANYTCETDGACMVSIFNLDGMEHHVRTCIPKVELVPAGKPFYCLSSEDLRNTHCCYTDYCNRIDLRVPSGHLKEPEHPSMWGPVELVGIIAGPVFLLFLIIIIVFLVINYHQRVYHNRQRLDMEDPSCEMCLSKDKTLQDLVYDLSTSGSGSGLPLFVQRTVARTIVLQEIIGKGRFGEVWRGRWRGGDVAVKIFSSREERSWFREAEIYQTVMLRHENILGFIAADNKDNGTWTQLWLVSDYHEHGSLFDYLNRYTVTIEGMIKLALSAASGLAHLHMEIVGTQGKPGIAHRDLKSKNILVKKNGMCAIADLGLAVRHDAVTDTIDIAPNQRVGTKRYMAPEVLDETINMKHFDSFKCADIYALGLVYWEIARRCNSGGVHEEYQLPYYDLVPSDPSIEEMRKVVCDQKLRPNIPNWWQSYEALRVMGKMMRECWYANGAARLTALRIKKTLSQLSVQEDVKI
percentage of EdU-negative [1, 3]: 25.1 ± 0.54% | percentage of EdU-negative ([1]; protein concentration 0.225 µM): 25.3 ± 3.2% | percentage of EdU-negative [2, 3]: 5.48 ± 0.32% | percentage of EdU-negative ([2]; protein concentration 0.225 µM): 6.41 ± 1.6%

MAAVRGAPLLSCLLALLALCPGGRPQTVLTDDEIEEFLEGFLSELEPEPREDDVEAPPPPEPTPRVRKAQAGGKPGKRPGTAAEVPPEKTKDKGKKGKKDKGPKVPKESLEGSPRPPKKGKEKPPKATKKPKEKPPKATKKPKEKPPKATKKPKEKPPKATKKPPSGKRPPILAPSETLEWPLPPPPSPGPEELPQEGGAPLSNNWQNPGEETHVEAREHQPEPEEETEQPTLDYNDQIEREDYEDFEYIRRQKQPRPPPSRRRRPERVWPEPPEEKAPAPAPEERIEPPVKPLLPPLPPDYGDGYVIPNYDDMDYYFGPPPPQKPDAERQTDEEKEELKKPKKEDSSPKEETDKWAVEKGKDHKEPRKGEELEEEWTPTEKVKCPPIGMESHRIEDNQIRASSMLRHGLGAQRGRLNMQTGATEDDYYDGAWCAEDDARTQWIEVDTRRTTRFTGVITQGRDSSIHDDFVTTFFVGFSNDSQTWVMYTNGYEEMTFHGNVDKDTPVLSELPEPVVARFIRIYPLTWNGSLCMRLEVLGCSVAPVYSYYAQNEVVATDDLDFRHHSYKDMRQLMKVVNEECPTITRTYSLGKSSRGLKIYAMEISDNPGEHELGEPEFRYTAGIHGNEVLGRELLLLLMQYLCREYRDGNPRVRSLVQDTRIHLVPSLNPDGYEVAAQMGSEFGNWALGLWTEEGFDIFEDFPDLNSVLWGAEERKWVPYRVPNNNLPIPERYLSPDATVSTEVRAIIAWMEKNPFVLGANLNGGERLVSYPYDMARTPTQEQLLAAAMAAARGEDEDEVSEAQETPDHAIFRWLAISFASAHLTLTEPYRGGCQAQDYTGGMGIVNGAKWNPRTGTINDFSYLHTNCLELSFYLGCDKFPHESELPREWENNKEALLTFMEQVHRGIKGVVTDEQGIPIANATISVSGINHGVKTASGGDYWRILNPGEYRVTAHAEGYTPSAKTCNVDYDIGATQCNFILARSNWKRIREIMAMNGNRPIPHIDPSRPMTPQQRRLQQRRLQHRLRLRAQMRLRRLNATTTLGPHTVPPTLPPAPATTLSTTIEPWGLIPPTTAGWEESETETYTEVVTEFGTEVEPEFGTKVEPEFETQLEPEFETQLEPEFEEEEEEEKEEEIATGQAFPFTTVETYTVNFGDF [Q8IUX7]
percentage of EdU-negative [1, 6]: 24.8 ± 1.1% | percentage of EdU-negative [1, 7]: 28.5 ± 0.34% | percentage of EdU-negative [2, 6]: 4.79 ± 0.43% | percentage of EdU-negative [2, 7]: 11.5 ± 0.62%

MVGKLKQNLLLACLVISSVTVFYLGQHAMECHHRIEERSQPVKLESTRTTVRTGLDLKANKTFAYHKDMPLIFIGGVPRSGTTLMRAMLDAHPDIRCGEETRVIPRILALKQMWSRSSKEKIRLDEAGVTDEVLDSAMQAFLLEIIVKHGEPAPYLCNKDPFALKSLTYLSRLFPNAKFLLMVRDGRASVHSMISRKVTIAGFDLNSYRDCLTKWNRAIETMYNQCMEVGYKKCMLVHYEQLVLHPERWMRTLLKFLQIPWNHSVLHHEEMIGKAGGVSLSKVERSTDQVIKPVNVGALSKWVGKIPPDVLQDMAVIAPMLAKLGYDPYANPPNYGKPDPKIIENTRRVYKGEFQLPDFLKEKPQTEQVE
percentage of EdU-negative [1, 3]: 26.5 ± 0.46% | percentage of EdU-negative ([1]; protein concentration 0.225 µM): 25.4 ± 1.6% | percentage of EdU-negative [2, 3]: 4.95 ± 1.4% | percentage of EdU-negative ([2]; protein concentration 0.225 µM): 7.95 ± 0.61%

MESSRVRLLPLLGAALLLMLPLLGTRAQEDAELQPRALDIYSAVDDASHEKELIEALQEVLKKLKSKRVPIYEKKYGQVPMCDAGEQCAVRKGARIGKLCDCPRGTSCNSFLLKCL
percentage of EdU-negative [1, 3]: 28.1 ± 1.3% | percentage of EdU-negative ([1]; protein concentration 0.225 µM): 24.6 ± 0.93% | percentage of EdU-negative [2, 3]: 5.12 ± 0.53% | percentage of EdU-negative ([2]; protein concentration 0.225 µM): 5.36 ± 0.64%

MQRLRWLRDWKSSGRGLTAAKEPGARSSPLQAMRILQLILLALATGLVGGETRIIKGFECKPHSQPWQAALFEKTRLLCGATLIAPRWLLTAAHCLKPRYIVHLGQHNLQKEEGCEQTRTATESFPHPGFNNSLPNKDHRNDIMLVKMASPVSITWAVRPLTLSSRCVTAGTSCLISGWGSTSSPQLRLPHTLRCANITIIEHQKCENAYPGNITDTMVCASVQEGGKDSCQGDSGGPLVCNQSLQGIISWGQDPCAITRKPGVYTKVCKYVDWIQETMKNN [Q9UBX7]
percentage of EdU-negative [1, 3]: 27.509 ± 0.019% | percentage of EdU-negative ([1]; protein concentration 0.225 µM): 25.5 ± 1.5% | percentage of EdU-negative [2, 3]: 5.31 ± 0.64% | percentage of EdU-negative ([2]; protein concentration 0.225 µM): 6.15 ± 0.74%

MTVLAPAWSPTTYLLLLLLLSSGLSGTQDCSFQHSPISSDFAVKIRELSDYLLQDYPVTVASNLQDEELCGGLWRLVLAQRWMERLKTVAGSKMQGLLERVNTEIHFVTKCAFQPPPSCLRFVQTNISRLLQETSEQLVALKPWITRQNFSRCLELQCQPDSSTLPPPWSPRPLEATAPTAPQPPLLLLLLLPVGLLLLAAAWCLHWQRTRRRTPRPGEQVPPVPSPQDLLLVEH
percentage of EdU-negative [1, 3]: 25 ± 0.85% | percentage of EdU-negative ([1]; protein concentration 0.225 µM): 25.7 ± 0.9% | percentage of EdU-negative [2, 3]: 5 ± 0.57% | percentage of EdU-negative ([2]; protein concentration 0.225 µM): 5.47 ± 0.61%
